According to patent US20250135018A1:

B1: Ag3-Ex_4-1: h1F6 anti-CD70 antibody conjugated to MP-PEG4-Val-Lys-Gly-7-MAD-MDCPT, DAR=8 (antibody, INN chains, looked up, V domains shown)
VH: QVQLVQSGAEVKKPGASVKVSCKASGYTFTNYGMNWVRQAPGQGLKWMGWINTYTGEPTYADAFKGRVTMTRDTSISTAYMELSRLRSDDTAVYYCARDYGDYGMDYWGQGTTVTVSS
VL: DIVMTQSPDSLAVSLGERATINCRASKSVSTSGYSFMHWYQQKPGQPPKLLIYLASNLESGVPDRFSGSGSGTDFTLTISSLQAEDVAVYYCQHSREVPWTFGQGTKVEIK
modifications: MP-PEG4-Val-Lys-Gly-MDCPT conjugate, DAR 8
B2: Ag3-Ex_8-1a: h1F6 anti-CD70 antibody conjugated to MC-GGFG-NHCH2-DXd(1), DAR=8 (antibody, INN chains, looked up, V domains shown)
VH: B1 VH
VL: B1 VL
modifications: MC-GGFG-DXd conjugate, DAR 8

Tests used:
Assay in all cases: cell-based or functional assay
CD48 = CD48 (UniProt P09326)
NTB-A = NTB-A (UniProt Q96DU3)
CD70 = biological target: T1, CD70 (UniProt P32970)
T1 sequence (looked up): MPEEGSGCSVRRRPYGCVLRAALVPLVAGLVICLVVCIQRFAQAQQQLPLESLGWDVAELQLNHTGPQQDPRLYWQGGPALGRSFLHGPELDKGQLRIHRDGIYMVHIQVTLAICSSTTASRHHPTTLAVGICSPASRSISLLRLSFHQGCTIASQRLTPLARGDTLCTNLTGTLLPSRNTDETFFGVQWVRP

Sequence of NTB-A (Q96DU3 22-332 limits assumed): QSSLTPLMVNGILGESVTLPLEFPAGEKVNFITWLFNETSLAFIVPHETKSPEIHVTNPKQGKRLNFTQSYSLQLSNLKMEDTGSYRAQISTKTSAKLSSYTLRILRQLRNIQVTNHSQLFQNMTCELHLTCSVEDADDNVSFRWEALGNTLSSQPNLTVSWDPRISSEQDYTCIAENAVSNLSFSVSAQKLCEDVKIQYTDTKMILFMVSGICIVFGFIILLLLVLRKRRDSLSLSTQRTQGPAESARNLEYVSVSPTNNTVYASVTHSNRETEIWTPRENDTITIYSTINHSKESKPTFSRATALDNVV
Sequence of CD48 (P09326 27-220 limits assumed): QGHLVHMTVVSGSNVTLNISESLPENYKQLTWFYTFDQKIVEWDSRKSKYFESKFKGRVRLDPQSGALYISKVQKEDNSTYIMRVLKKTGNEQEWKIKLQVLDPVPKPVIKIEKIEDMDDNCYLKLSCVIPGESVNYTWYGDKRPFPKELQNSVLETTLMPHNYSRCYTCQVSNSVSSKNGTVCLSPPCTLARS

| Molecule | IC50 of cell growth (CellTiter-Glo, 96 h), EJM cells (CD48) | IC50 of cell growth (CellTiter-Glo, 96 h), KMM-1 cells (CD48) | IC50 of cell growth (CellTiter-Glo, 96 h), MM.1R cells (CD48) | IC50 of cell growth (CellTiter-Glo, 96 h), NCI-H929 cells (CD48) | IC50 of cell growth (CellTiter-Glo, 96 h), U-266 cells (CD48) | percent cells remaining at highest concentration tested, EJM cells (CD48) | percent cells remaining at highest concentration tested, KMM-1 cells (CD48) | percent cells remaining at highest concentration tested, MM.1R cells (CD48) | percent cells remaining at highest concentration tested, NCI-H929 cells (CD48) | IC50 of cell growth (CellTiter-Glo, 96 h), EJM cells (NTB-A) | IC50 of cell growth (CellTiter-Glo, 96 h), KMM-1 cells (NTB-A) | IC50 of cell growth (CellTiter-Glo, 96 h), MM.1R cells (NTB-A) | IC50 of cell growth (CellTiter-Glo, 96 h), NCI-H929 cells (NTB-A) | IC50 of cell growth (CellTiter-Glo, 96 h), U-266 cells (NTB-A) | percent cells remaining at highest concentration tested, KMM-1 cells (NTB-A) | IC50 of cell growth (CellTiter-Glo, 96 h), 786-O cells (CD70) | IC50 of cell growth (CellTiter-Glo, 96 h), Caki-1 cells (CD70) | IC50 of cell growth (CellTiter-Glo, 96 h), Raji cells (CD70) | IC50 of cell growth (CellTiter-Glo, 96 h), UM-RC-3 cells (CD70) | percent cells remaining at highest concentration tested, 786-O cells (CD70) | further results |
| --- | --- | --- | --- | --- | --- | --- | --- | --- | --- | --- | --- | --- | --- | --- | --- | --- | --- | --- | --- | --- | --- |
| Ag4-Ex_4-1: hMEM102 anti-CD48 antibody conjugated to MP-PEG4-Val-Lys-Gly-7-MAD-MDCPT, DAR=8 | 53 ng/mL | 18 ng/mL | 4 ng/mL | 6 ng/mL | 17 ng/mL | 27% | 16% | 1% | 2% |  |  |  |  |  |  |  |  |  |  |  | percent cells remaining at highest concentration tested, U-266 cells (CD48): 38% |
| Ag4-Ex_8-1a: hMEM102 anti-CD48 antibody conjugated to MC-GGFG-NHCH2-DXd(1), DAR=8 | 2780 ng/mL | 75 ng/mL | 9 ng/mL | 9 ng/mL | > 10000 ng/mL | 0% | 34% | 0% | 3% |  |  |  |  |  |  |  |  |  |  |  |  |
| Ag5-Ex_4-1: h20F3 anti-NTB-A antibody conjugated to MP-PEG4-Val-Lys-Gly-7-MAD-MDCPT, DAR=8 |  |  |  |  |  |  |  |  |  | 150 ng/mL | 177 ng/mL | 5 ng/mL | 80 ng/mL | 97 ng/mL | 16% |  |  |  |  |  | percent cells remaining at highest concentration tested, EJM cells (NTB-A): 31%; percent cells remaining at highest concentration tested, MM.1R cells (NTB-A): 0%; percent cells remaining at highest concentration tested, NCI-H929 cells (NTB-A): 2%; percent cells remaining at highest concentration tested, U-266 cells (NTB-A): 28% |
| Ag5-Ex_8-1a: h20F3 anti-NTB-A antibody conjugated to MC-GGFG-NHCH2-DXd(1), DAR=8 |  |  |  |  |  |  |  |  |  | 7190 ng/mL | 5290 ng/mL | 177 ng/mL | 2930 ng/mL | > 10000 ng/mL | 45% |  |  |  |  |  |  |
| B1 |  |  |  |  |  |  |  |  |  |  |  |  |  |  |  | 37 ng/mL | 36 ng/mL | 1130 ng/mL | 16 ng/mL | 18% | percent cells remaining at highest concentration tested, Caki-1 cells (CD70): 24%; percent cells remaining at highest concentration tested, Raji cells (CD70): 45%; percent cells remaining at highest concentration tested, UM-RC-3 cells (CD70): 30% |
| B2 |  |  |  |  |  |  |  |  |  |  |  |  |  |  |  | > 10000 ng/mL | > 10000 ng/mL | 5560 ng/mL | 65 ng/mL | 54% | percent cells remaining at highest concentration tested, Caki-1 cells (CD70): 68%; percent cells remaining at highest concentration tested, UM-RC-3 cells (CD70): 40% |
